The values that follow come from publication PMC10075959.

The target in the data set is FL-N nucleocapsid protein (SARS-CoV-2, UniProt P0DTC9 1-419). In words: sedimentation velocity AUC. The note with it: protein: commercial; chain copies: 2; single strand.

For the molecule TTTTTTTTTT (ssDNA) [T10], the binding result is on record as “binds”.
